{"source": "paper PMC6937560", "biological_target": "myeloperoxidase (MPO), mature form from neutrophils of healthy human donors (human) (UniProt P05164)", "assay": "native MS; about 3 uM MPO in 150 mM ammonium acetate pH 7.5, direct infusion, Micromass LCT; monomer (light + heavy chain) to dimer", "data": [{"substance": "myeloperoxidase (MPO), mature form from neutrophils of healthy human donors (from UniProt P05164 279-745) (enzyme)", "values": [{"measurement": "stoichiometry N", "result": 2}]}]}
